From PMC11444335, “Next-generation cell-penetrating antibodies for tumor targeting and RAD51 inhibition” (Oncotarget, 2024)
Changes are numbered by the printed parent chain. Names may count otherwise. Each block holds one binder with its values, some of them ahead of it.

Biological target: T1, human RAD51 (Homo sapiens, UniProt Q06609)
T1 construct: DNA repair protein RAD51, human, expressed from the CMV-hRAD51 plasmid (Addgene #125570); Endogenous RAD51 of the MCF7 cells is also present and would be detected by the same anti-RAD51 blot; also called hRAD51; source: MCF7, transiently transfected with CMV-hRAD51 plasmid, in cells and lysate
Test: cross-linking + co-IP; CLIP: MCF7 cells transfected with 10 ug CMV-hRAD51 plasmid, treated with 500 nM purified antibody for 6 h, UV crosslinked, lysed; antibody captured on Protein A/G beads, eluate blotted with anti-RAD51; RAD51 signal normalized to Fc signal of the lysate and to WT
Conditions: one partner purified

T1 sequence (Q06609 whole entry): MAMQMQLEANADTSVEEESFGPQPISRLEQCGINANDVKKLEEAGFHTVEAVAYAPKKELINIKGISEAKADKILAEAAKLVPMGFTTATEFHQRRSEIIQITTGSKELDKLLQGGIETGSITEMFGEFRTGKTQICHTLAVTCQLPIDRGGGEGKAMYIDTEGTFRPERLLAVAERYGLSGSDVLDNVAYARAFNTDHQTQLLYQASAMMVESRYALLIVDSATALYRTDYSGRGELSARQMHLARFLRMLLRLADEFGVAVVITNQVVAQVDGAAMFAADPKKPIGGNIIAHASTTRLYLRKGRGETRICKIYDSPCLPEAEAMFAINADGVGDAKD

binding result: binds
B1: fully humanized full-length 3E10 variant V31 (VH3 + VL1, IgG1) (antibody, V domains shown)
VH: EVQLVESGGGLVQPGGSLRLSCAASGFTFSNYGMHWVRQAPGKGLEWVAYISSGSSTIYYADTVKGRFTISRDNAKNSLYLQMTSLRAEDTAMYYCARRGLLLDYWGQGTLVTVSS
VL: DIVLTQSPASLAVSPGQRATITCRASKSVSTSSYSYMHWYQQKPGQPPKLLIYYASYLESGVPARFSGSGSGTDFTLTINPVEANDTANYYCQHSREFPWTFGGGTKVEIK
notes: humanized VH3 (CDR graft of 3E10 on germline IGHV3-48*01, with N31); human IgG1 heavy chain constant region; humanized VL1 (CDR graft of 3E10 on germline IGKV7-3*01); IgG1; all humanized variants contain the D31N mutation; source: Chinese hamster ovary cells, purified (Genscript)

binding result: binds
B2: full-length chimeric WT 3E10 (murine variable chains, human IgG1 Fc domain) (antibody, V domains shown)
VH: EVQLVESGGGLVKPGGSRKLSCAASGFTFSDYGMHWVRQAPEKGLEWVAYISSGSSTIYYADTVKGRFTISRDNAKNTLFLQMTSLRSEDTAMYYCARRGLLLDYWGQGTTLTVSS
VL: B1 VL with P15L, T22S, Y53K, T78N, N80H, A84E, N85E, T87A, N89T, V108L
notes: murine 3E10 VH, wild type (D31 in CDR1); human IgG1 heavy chain constant region; murine 3E10 VL, wild type; IgG1 chimera; also called parental 3E10; source: purified antibody
